Measurements from US20140087995A1 (published 2014).
Numbered stars: 1 amine (or outer) side, 2 acyl side, 3 side chain; on linkers, the order of the positions; unused ones are H or OH. Bridge positions count the residues as written; N and C are the ends. Side chains are listed from the residue outwards. Ends that are not written are not given here. * marks the point of attachment. C20 diacid = O=C(O)CCCCCCCCCCCCCCCCCCC(=O)*; γGlu = O=C(O)[C@H](CCC(=O)[*:2])N[*:1]

T1: human calcitonin receptor (human, UniProt P30988 25-474)
T1 construct: whole, on cells; Membranes of BHK cells stably transfected with the human calcitonin receptor (Assay VII); also called hCTR; hCT
T1 sequence (looked up): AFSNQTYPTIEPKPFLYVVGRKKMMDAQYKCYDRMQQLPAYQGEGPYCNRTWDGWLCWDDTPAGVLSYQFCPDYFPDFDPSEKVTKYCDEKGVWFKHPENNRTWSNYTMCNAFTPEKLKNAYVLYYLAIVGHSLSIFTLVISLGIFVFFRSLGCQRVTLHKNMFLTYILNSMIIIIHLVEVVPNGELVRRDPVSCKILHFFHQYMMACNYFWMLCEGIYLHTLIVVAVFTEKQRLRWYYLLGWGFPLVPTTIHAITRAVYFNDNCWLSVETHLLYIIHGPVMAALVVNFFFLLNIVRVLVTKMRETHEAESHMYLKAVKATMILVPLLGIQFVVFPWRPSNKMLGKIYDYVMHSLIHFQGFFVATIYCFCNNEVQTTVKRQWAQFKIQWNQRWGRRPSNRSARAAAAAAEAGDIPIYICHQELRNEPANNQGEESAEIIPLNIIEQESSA


How the values were obtained:
[1] = target: T1, human calcitonin receptor; assay: SPA competition against 125I-calcitonin, membranes of BHK cells with human calcitonin receptor (Assay VII)
Experimental: Membranes were prepared in the following way; the cells were rinsed with PBS and incubated with Versene for approximately 5 min before harvesting. The cells were flushed with PBS and the cell-suspension was centrifuged for 5 min at 1000 rpm. Cells were homogenized (Ultrathurrax) in a buffer containing 20 mM Na-HEPES and 10 mM EDTA (pH 7.4) and centrifuged at 20.000 rpm for 15 min. The resulting pellet was resuspended, homogenized and centrifuged (20.000 rpm, 15 min) in a buffer containing 20 mM Na-HEPES and 0.1 mM EDTA (pH 7.4, buffer 2). The resulting pellet was resuspended in buffer 2 and protein concentration was measured (BCA protein Assay, Pierce). The homogenate was kept cold during the whole procedure. The membranes were kept at −80° C. until use. Assay was performed in a 384 well Optiplate (PerkinElmer) in a total volume of 40 ul. Membranes were mixed with SPA beads. Final concentration of membranes 35 ng/μL final and Final concentration of SPA beads was 0.05 mg/well. Test-compounds were dissolved in DMSO and further diluted in assay buffer (50 mM Hepes, pH 7.4, 1 mM CaCl2, 5 mM MgCl₂, 0.1% OA and 0.02% Tween20). […] The final mixture was incubated for 120 min with shaking at 400 rpm at 25° C. prior to centrifugation (1500 rpm, 10 min). Samples were analyzed on TopCounter™ (Packard). The […] was calculated using (one site binding competition analysis) GraphPad Prism5 as a measure of receptor affinity.

[2] = target: T1, human calcitonin receptor; assay: ratio of IC50 at hCTR over IC50 at hAmylin-R (SPA competition assays)
Experimental: The resulting pellet was resuspended, homogenized and centrifuged (20.000 rpm, 15 min) in a buffer containing 20 mM Na-HEPES and 0.1 mM EDTA (pH 7.4, buffer 2). The resulting pellet was resuspended in buffer 2 and protein concentration was measured (BCA protein Assay, Pierce). The homogenate was kept cold during the whole procedure. The membranes were kept at −80° C. until use. The assay was performed in a 384 well Optiplate (PerkinElmer) in a total volume of 40 ul. Membranes were mixed with SPA beads. Final concentration of membranes 35 ng/μL final and SPA beads was 0.05 mg/well. Test-compounds were dissolved in DMSO and further diluted in assay buffer (50 mM Hepes, pH 7.4, 1 mM CaCl2, 5 mM MgCl₂, 0.1% OA and 0.02% Tween20). […] The final mixture was incubated with shaking at 400 rpm for 120 min at 25° C. prior to centrifugation (1500 rpm, 10 min). Samples were analyzed on TopCounter™ (Packard). The IC₅₀ was calculated using (one site binding competition analysis) GraphPad Prism5 as a measure of receptor affinity.
Membranes were prepared in the following way; the cells were rinsed with PBS and incubated with Versene for approximately 5 min before harvesting. The cells were flushed with PBS and the cell-suspension was centrifuged for 5 min at 1000 rpm. Cells were homogenized (Ultrathurrax) in a buffer containing 20 mM Na-HEPES and 10 mM EDTA (pH 7.4) and centrifuged at 20.000 rpm for 15 min. The resulting pellet was resuspended, homogenized and centrifuged (20.000 rpm, 15 min) in a buffer containing 20 mM Na-HEPES and 0.1 mM EDTA (pH 7.4, buffer 2). The resulting pellet was resuspended in buffer 2 and protein concentration was measured (BCA protein Assay, Pierce). The homogenate was kept cold during the whole procedure. The membranes were kept at −80° C. until use. Assay was performed in a 384 well Optiplate (PerkinElmer) in a total volume of 40 ul. Membranes were mixed with SPA beads.

| IC50 [1] [nM] | Ratio hCT/hAmylin binding [2] | Binder |
| --- | --- | --- |
| 42.5 | 151 | K([γGlu-C20 diacid])CNTATCATQRLADFLRHSSPNFGAIPSSTNVGPRTY-NH2 (disulfide 2-7; N-terminus assumed; SMILES CC[C@H](C)[C@H](NC(=O)[C@H](C)NC(=O)CNC(=O)[C@H](Cc1ccccc1)NC(=O)[C@H](CC(N)=O)NC(=O)[C@@H]1CCCN1C(=O)[C@H](CO)NC(=O)[C@H](CO)NC(=O)[C@H](Cc1c[nH]cn1)NC(=O)[C@H](CCCNC(=N)N)NC(=O)[C@H](CC(C)C)NC(=O)[C@H](Cc1ccccc1)NC(=O)[C@H](CC(=O)O)NC(=O)[C@H](C)NC(=O)[C@H](CC(C)C)NC(=O)[C@H](CCCNC(=N)N)NC(=O)[C@H](CCC(N)=O)NC(=O)[C@@H](NC(=O)[C@H](C)NC(=O)[C@@H]1CSSC[C@H](NC(=O)[C@@H](N)CCCCNC(=O)CC[C@H](NC(=O)CCCCCCCCCCCCCCCCCCC(=O)O)C(=O)O)C(=O)N[C@@H](CC(N)=O)C(=O)N[C@@H]([C@@H](C)O)C(=O)N[C@@H](C)C(=O)N[C@@H]([C@@H](C)O)C(=O)N1)[C@@H](C)O)C(=O)N1CCC[C@H]1C(=O)N[C@@H](CO)C(=O)N[C@@H](CO)C(=O)N[C@H](C(=O)N[C@@H](CC(N)=O)C(=O)N[C@H](C(=O)NCC(=O)N1CCC[C@H]1C(=O)N[C@@H](CCCNC(=N)N)C(=O)N[C@H](C(=O)N[C@@H](Cc1ccc(O)cc1)C(N)=O)[C@@H](C)O)C(C)C)[C@@H](C)O) |
| 6.62 | 28.5 | K([γGlu-C20 diacid])CNTATCATQRLAEFLRHSSPNFGAIPSSTNVGRETY-NH2 (disulfide 2-7; N-terminus assumed; SMILES CC[C@H](C)[C@H](NC(=O)[C@H](C)NC(=O)CNC(=O)[C@H](Cc1ccccc1)NC(=O)[C@H](CC(N)=O)NC(=O)[C@@H]1CCCN1C(=O)[C@H](CO)NC(=O)[C@H](CO)NC(=O)[C@H](Cc1c[nH]cn1)NC(=O)[C@H](CCCNC(=N)N)NC(=O)[C@H](CC(C)C)NC(=O)[C@H](Cc1ccccc1)NC(=O)[C@H](CCC(=O)O)NC(=O)[C@H](C)NC(=O)[C@H](CC(C)C)NC(=O)[C@H](CCCNC(=N)N)NC(=O)[C@H](CCC(N)=O)NC(=O)[C@@H](NC(=O)[C@H](C)NC(=O)[C@@H]1CSSC[C@H](NC(=O)[C@@H](N)CCCCNC(=O)CC[C@H](NC(=O)CCCCCCCCCCCCCCCCCCC(=O)O)C(=O)O)C(=O)N[C@@H](CC(N)=O)C(=O)N[C@@H]([C@@H](C)O)C(=O)N[C@@H](C)C(=O)N[C@@H]([C@@H](C)O)C(=O)N1)[C@@H](C)O)C(=O)N1CCC[C@H]1C(=O)N[C@@H](CO)C(=O)N[C@@H](CO)C(=O)N[C@H](C(=O)N[C@@H](CC(N)=O)C(=O)N[C@H](C(=O)NCC(=O)N[C@@H](CCCNC(=N)N)C(=O)N[C@@H](CCC(=O)O)C(=O)N[C@H](C(=O)N[C@@H](Cc1ccc(O)cc1)C(N)=O)[C@@H](C)O)C(C)C)[C@@H](C)O) |
| 4.28 | 11.1 | K([γGlu-C20 diacid])CNTATCATQRLAEFLRHSSPNFGAIPSSTNVGHETY-NH2 (disulfide 2-7; N-terminus assumed; SMILES CC[C@H](C)[C@H](NC(=O)[C@H](C)NC(=O)CNC(=O)[C@H](Cc1ccccc1)NC(=O)[C@H](CC(N)=O)NC(=O)[C@@H]1CCCN1C(=O)[C@H](CO)NC(=O)[C@H](CO)NC(=O)[C@H](Cc1c[nH]cn1)NC(=O)[C@H](CCCNC(=N)N)NC(=O)[C@H](CC(C)C)NC(=O)[C@H](Cc1ccccc1)NC(=O)[C@H](CCC(=O)O)NC(=O)[C@H](C)NC(=O)[C@H](CC(C)C)NC(=O)[C@H](CCCNC(=N)N)NC(=O)[C@H](CCC(N)=O)NC(=O)[C@@H](NC(=O)[C@H](C)NC(=O)[C@@H]1CSSC[C@H](NC(=O)[C@@H](N)CCCCNC(=O)CC[C@H](NC(=O)CCCCCCCCCCCCCCCCCCC(=O)O)C(=O)O)C(=O)N[C@@H](CC(N)=O)C(=O)N[C@@H]([C@@H](C)O)C(=O)N[C@@H](C)C(=O)N[C@@H]([C@@H](C)O)C(=O)N1)[C@@H](C)O)C(=O)N1CCC[C@H]1C(=O)N[C@@H](CO)C(=O)N[C@@H](CO)C(=O)N[C@H](C(=O)N[C@@H](CC(N)=O)C(=O)N[C@H](C(=O)NCC(=O)N[C@@H](Cc1c[nH]cn1)C(=O)N[C@@H](CCC(=O)O)C(=O)N[C@H](C(=O)N[C@@H](Cc1ccc(O)cc1)C(N)=O)[C@@H](C)O)C(C)C)[C@@H](C)O, also called compound 107) |
| 3.27 | 16.7 | K([γGlu-C20 diacid])CNTATCATQRLADFLRHSSPNFGAIPSSTNVGPETY-NH2 (disulfide 2-7; N-terminus assumed; SMILES CC[C@H](C)[C@H](NC(=O)[C@H](C)NC(=O)CNC(=O)[C@H](Cc1ccccc1)NC(=O)[C@H](CC(N)=O)NC(=O)[C@@H]1CCCN1C(=O)[C@H](CO)NC(=O)[C@H](CO)NC(=O)[C@H](Cc1c[nH]cn1)NC(=O)[C@H](CCCNC(=N)N)NC(=O)[C@H](CC(C)C)NC(=O)[C@H](Cc1ccccc1)NC(=O)[C@H](CC(=O)O)NC(=O)[C@H](C)NC(=O)[C@H](CC(C)C)NC(=O)[C@H](CCCNC(=N)N)NC(=O)[C@H](CCC(N)=O)NC(=O)[C@@H](NC(=O)[C@H](C)NC(=O)[C@@H]1CSSC[C@H](NC(=O)[C@@H](N)CCCCNC(=O)CC[C@H](NC(=O)CCCCCCCCCCCCCCCCCCC(=O)O)C(=O)O)C(=O)N[C@@H](CC(N)=O)C(=O)N[C@@H]([C@@H](C)O)C(=O)N[C@@H](C)C(=O)N[C@@H]([C@@H](C)O)C(=O)N1)[C@@H](C)O)C(=O)N1CCC[C@H]1C(=O)N[C@@H](CO)C(=O)N[C@@H](CO)C(=O)N[C@H](C(=O)N[C@@H](CC(N)=O)C(=O)N[C@H](C(=O)NCC(=O)N1CCC[C@H]1C(=O)N[C@@H](CCC(=O)O)C(=O)N[C@H](C(=O)N[C@@H](Cc1ccc(O)cc1)C(N)=O)[C@@H](C)O)C(C)C)[C@@H](C)O) |
